System: CCCCCCCCCCCCCC(=O)OC[C@H](COP(=O)([O-])OCC[N+](C)(C)C)OC(=O)CCC(=O)Oc1ccc([N+](=O)[O-])cc1
Test: purified protein
Conditions: chromogenic substrate; mean of duplicate experiments

Substance “rL-PAF-AH (recombinant His-tag-L-PAF-AH, LA2144) (Leptospira interrogans serovar Lai str. 56601)” has a Km of 610 µM, a kcat of 6.61 s⁻¹ and a kcat/Km of 10800 M⁻¹ s⁻¹.
